Results: patent US20200297842A1 (published 2020)

Key:
[1] = molecular target: T1, Fc tagged human SIRPα (ACRO # SIG-H5251, genotype variant 1) (human, UniProt P78324 31-370, limits assumed); assay: ELISA, plate-coated Fc tagged human SIRPα; apparent Kd
T1 construct: Bought protein; also called Fc tagged human SIRP alpha; recombinant human SIRPα; not shown: Fc tag
Experimental: The binding of anti-SIRP monoclonal antibodies (mAbs) of the present disclosure to SIRP alpha (SIRPα) was determined by solid phase ELISA using an Fc tagged human SIRP alpha. Binding by soluble anti-SIRP antibodies was measured in vitro.
Fc tagged human SIRPα (ACRO # SIG-H5251, genotype variant 1) is adsorbed to high-binding microtiter plates at a concentration of 1 μg/ml diluted in phosphate buffered saline (PBS) overnight at 4° C. The coating solution is removed, the wells are washed and then blocked with 75% casein in PBS containing 0.5% Tween 20 (PBST) for 60 minutes at room temperature while shaking. Blocking solution is removed, the wells are washed and incubated for 60 minutes at room temperature while shaking with either murine or human anti-SIRP mAbs diluted in PBST at a starting concentration of 30 μg/ml and reducing the concentration in 3-fold serial dilutions. Wells are washed three times with PBST and incubated for 60 minutes at room temperature while shaking with an HRP-labeled donkey anti-mouse or anti-human secondary antibody (Jackson ImmunoResearch Laboratories) diluted 1:10,000 in PBST. The wells are washed and then incubated with peroxidase substrate and the absorbance at 450 nm measured. The apparent affinities were calculated using a non-linear fit model (GraphPad Prism).

[2] = molecular target: T2, Fc tagged human SIRPγ (ACRO # SIG-H5253) (human, UniProt Q9P1W8 29-360); assay: ELISA, plate-coated Fc tagged human SIRPγ; apparent Kd
T2 construct: Bought protein; it includes the transmembrane and cytoplasmic part, which a soluble Fc fusion would not carry; also called Fc tagged human SIRP gamma; recombinant human SIRP gamma; not shown: Fc tag
T2 sequence (Q9P1W8 29-360 limits assumed): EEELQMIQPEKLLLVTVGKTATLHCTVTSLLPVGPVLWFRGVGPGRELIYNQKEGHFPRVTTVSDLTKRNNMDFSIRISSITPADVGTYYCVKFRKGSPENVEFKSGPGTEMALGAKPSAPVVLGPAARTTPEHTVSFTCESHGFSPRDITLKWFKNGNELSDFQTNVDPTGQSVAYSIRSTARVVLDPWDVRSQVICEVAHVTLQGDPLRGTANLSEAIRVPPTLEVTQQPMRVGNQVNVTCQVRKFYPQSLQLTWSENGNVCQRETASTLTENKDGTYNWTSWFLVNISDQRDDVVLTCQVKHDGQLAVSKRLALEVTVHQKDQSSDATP
Experimental: The binding of anti-SIRP antibodies of the present disclosure to SIRP gamma (SIRPγ) was determined by ELISA using an Fc tagged human SIRPγ. Binding by soluble anti-SIRP antibodies was measured in vitro.
(§1) Fc tagged human SIRPγ (ACRO # SIG-H5253) is adsorbed to high-binding microtiter plates at a concentration of 1 μg/ml in phosphate buffered saline (PBS) overnight at 4° C. The coating solution is removed, the wells are washed and then blocked with 75% casein in PBS containing 0.5% Tween 20 (PBST) for 60 minutes at room temperature while shaking. Blocking solution is removed, the wells are washed and incubated for 60 minutes at room temperature while shaking with anti-SIRP mAbs diluted in PBST at a starting concentration of 30 μg/ml and reducing the concentration in 3-fold serial dilutions. Wells are washed three times with PBST and incubated for 60 minutes at room temperature while shaking with an HRP labeled donkey anti-mouse or anti-human secondary antibody (Jackson ImmonResearch Laboratories) diluted 1:10,000 in PBST. The wells are washed and then incubated with peroxidase substrate and the absorbance at 450 nm determined. The apparent affinities were calculated using a non-linear fit model (GraphPad Prism).

[3] = molecular target: T3, human SIRPγ expressed on cells (human, UniProt Q9P1W8 29-387); assay: flow cytometry on activated human CD3 T cells expressing SIRPγ
T3 construct: Endogenous SIRPγ on Jurkat T-ALL cells and on human CD3+ T cells; also called SIRPγ expressing Jurkat cells; Human T Cells Expressing SIRPγ
T3 sequence (Q9P1W8 29-387): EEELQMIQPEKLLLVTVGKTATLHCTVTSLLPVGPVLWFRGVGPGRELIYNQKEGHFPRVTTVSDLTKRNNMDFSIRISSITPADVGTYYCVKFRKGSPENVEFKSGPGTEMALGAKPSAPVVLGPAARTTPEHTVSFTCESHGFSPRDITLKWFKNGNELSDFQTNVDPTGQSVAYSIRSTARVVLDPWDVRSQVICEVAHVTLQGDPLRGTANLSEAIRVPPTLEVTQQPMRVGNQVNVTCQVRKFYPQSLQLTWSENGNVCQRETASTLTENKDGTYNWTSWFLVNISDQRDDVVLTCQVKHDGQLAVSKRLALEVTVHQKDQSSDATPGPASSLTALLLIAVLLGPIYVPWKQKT
Experimental: (§2) Human CD3 T cells, isolated from peripheral blood mononuclear cells (Astarte Biologics) were incubated in 96-well V-bottom plates at 2.5 \ 10⁵ cells/well for 1 h at 37° C., 5% CO₂ with serial dilutions of SIRP mAbs in binding buffer containing 1 mM EDTA (Sigma Aldrich), 1% FBS (Biowest) in PBS (Corning). The cells were then washed and stained for 45 min under the same conditions with donkey anti-mouse IgG fluorescein isothiocyanate (FITC)-linked secondary antibody (Jackson ImmunoResearch Laboratories). The cells were subsequently stained with anti-CD3 conjugated to 3-carboxy-6,8-difluoro-7-hydroxycoumarin (Pacific Blue) fluorophore (BioLegend) for 30 min on ice, washed and analyzed by flow cytometry (Attune, Life Technologies). Binding was assessed as the median FITC fluorescence intensity of CD3⁺ cells, subtracted from CD3⁺ cells stained with the secondary antibody only. All SIRP antibodies were generated in-house except for LSB2.20 (BioLegend). For activated T cells, prior to the binding assay CD3 T cells were activated for 72 h in a 96-well flat-bottom plate coated with 10 μg/ml anti-CD3 (clone UCHT1; BioLegend), at 1×10⁵ cells/well in the presence of 0.5 μg/ml anti-CD28 (clone CD28.2; BioLegend).

[4] = molecular target: T4, human SIRPα expressed on cells (human, UniProt P78324 31-504); assay: flow cytometry on human monocyte-derived macrophages; apparent Kd
T4 construct: whole, on cells; Endogenous SIRPα of THP-1 cells and of donor-derived macrophages and dendritic cells; also called SIRPα expressing THP-1 cells; cell-expressed SIRPα on dendritic cells and/or macrophages
T4 sequence (P78324 31-504): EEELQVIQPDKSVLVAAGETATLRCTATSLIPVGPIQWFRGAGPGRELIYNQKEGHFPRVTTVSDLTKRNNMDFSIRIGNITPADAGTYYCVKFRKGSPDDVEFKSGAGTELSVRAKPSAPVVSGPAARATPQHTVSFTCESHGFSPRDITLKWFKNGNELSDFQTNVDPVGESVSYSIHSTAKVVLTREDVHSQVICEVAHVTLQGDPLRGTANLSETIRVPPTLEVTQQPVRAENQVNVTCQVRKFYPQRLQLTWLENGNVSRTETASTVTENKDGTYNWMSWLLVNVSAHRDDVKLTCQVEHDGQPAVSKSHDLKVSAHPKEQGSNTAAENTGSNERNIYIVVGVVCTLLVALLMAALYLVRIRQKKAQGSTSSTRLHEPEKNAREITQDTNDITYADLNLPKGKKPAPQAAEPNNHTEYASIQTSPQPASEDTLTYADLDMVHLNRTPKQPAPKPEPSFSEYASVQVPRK
Experimental: Human CD14⁺ monocytes, isolated from peripheral blood mononuclear cells (Astarte Biologics) were differentiated in vitro for seven days into macrophages or dendritic cells. For macrophage differentiation, monocytes were incubated in AIM-V media (Life Technologies) supplemented with 50 ng/ml M-CSF (Biolegend) for seven days. For dendritic cell differentiation, monocytes were incubated in AIM-V media (Life Technologies) in the presence of 10% human AB serum (Valley Biomedical), 200 ng/ml GM-CSF (Biolegend) and 50 ng/ml IL-4 (Biolegend). The cells were incubated for 1 h at 37° C., 5% CO₂ with serial dilutions of SIRP mAbs in binding buffer containing 1 mM EDTA (Sigma Aldrich) and 1% FBS (Biowest) in PBS (Corning). The cells were then washed and stained for 45 min under the same conditions with donkey anti-mouse IgG fluorescein isothiocyanate (FITC)-linked secondary antibody (Jackson ImmunoResearch Laboratories). The cells were subsequently stained with anti-CD14 or anti-CD11c conjugated to Alexa Fluor 647 fluorophore (Life Technologies and Biolegend, respectively) for 30 min on ice, washed and analyzed by flow cytometry (Attune, Life Technologies). Binding was assessed as the median FITC fluorescence intensity of CD14⁺ or CD11c⁺ cells, subtracted from cells stained with the secondary antibody only.

[5] = molecular target: T3, human SIRPγ expressed on cells; assay: flow cytometry on naive human CD3 T cells expressing SIRPγ (second column)
Experimental: as §2

[6] = molecular target: T2, Fc tagged human SIRPγ (ACRO # SIG-H5253); assay: ELISA, plate-coated Fc tagged human SIRPγ
Experimental: as §1

[7] = molecular target: T3, human SIRPγ expressed on cells; assay: flow cytometry on Jurkat cells expressing SIRPγ, increasing mAb concentrations (FIG. 4A)
Experimental: FIG. 4A-FIG. 4B. Binding of SIRP mAbs to Jurkat T cells Expressing SIRPγ. Binding of SIRP1, SIRP2, SIRP3, SIRP4 and SIRP9 to Jurkat T-ALL cells was determined. Cells were incubated with increasing concentrations of antibody FIG. 4A; or 10 μg/ml of the anti-SIRP antibodies for 1 hr; FIG. 4B. Cells were washed and then incubated with Alexaflour 647-labelled secondary antibody for 1 hr. Cells were washed and antibody binding measured using flow cytometry.
Jurkat cells were incubated for 60 min at 37° C., 5% CO₂ with increasing concentrations of the anti-SIRP mAbs diluted in phosphate buffered saline (PBS), pH 7.2. Cells were then washed with PBS and incubated for an additional hour with Alexa Fluor-647 labeled donkey anti-mouse antibody (Jackson ImmunoResearch Laboratories) in PBS. Cells were washed and binding analyzed using a C6 Accuri Flow Cytometer (Becton Dickinson). Alternatively, the cells were incubated for 1 h at 37° C. with the saturating concentration of 10 μg/ml of SIRP mAbs in binding buffer containing 1 mM EDTA (Sigma Aldrich), 1% FBS (Biowest) in PBS (Corning). The cells were then washed and stained for 45 min under the same conditions with donkey anti-mouse IgG fluorescein isothiocyanate (FITC)-linked secondary antibody (Jackson ImmunoResearch Laboratories). The cells were then washed and analyzed by flow cytometry (Attune, Life Technologies).

T1 sequence (P78324 31-370 limits assumed, change not shown, form in doubt): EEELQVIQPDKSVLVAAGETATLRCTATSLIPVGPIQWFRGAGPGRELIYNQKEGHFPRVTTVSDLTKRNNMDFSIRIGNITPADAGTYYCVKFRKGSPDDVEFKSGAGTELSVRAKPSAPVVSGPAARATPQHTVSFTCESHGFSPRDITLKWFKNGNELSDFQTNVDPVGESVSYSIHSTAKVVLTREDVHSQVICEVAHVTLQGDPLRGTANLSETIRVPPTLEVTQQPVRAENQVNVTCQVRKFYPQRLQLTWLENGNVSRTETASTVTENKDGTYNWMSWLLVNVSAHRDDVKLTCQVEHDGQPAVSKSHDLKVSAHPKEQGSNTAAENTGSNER

Binder	Kd [1] [nM]	Kd [2] [nM]	Kd [3] [nM]	Kd [4] [nM]	Kd [5] [nM]	binding result [6]	binding result [7]
SIRP9 (antibody, V domains shown, detected with anti-mouse secondary antibody in the cell assays) VH: EVQLQESGAELVRPGASVKLSCKALGYTFTDYEIHWVKETPVYGLEWIGDIHPGSGGTANNQKFKGKATLTADKSSNTAYMELSSLTSEDSAVYYCTRAVSGYYAMDYWGQGTSVTVSS VL: DIQMTQSSSSFSGSLGDRLTINCKASEDIYDRVAWYQQKPGNAPRLLISGTASLETGVLSRFSGSGSGKDYTLSINGLQAEDVATYYCQQYWTTPWTFGGGTKLEIK	0.583	0.51	0.263	0.0937	1.41		
SIRP1 (antibody, mouse IgG1, kappa, V domains shown, Hybridoma-derived mouse mAb) VH: QVQLQQSGAELMKPGASVKISCKATGYSFTKYWIEWVKQRPGHGLEWIGEILPGSVITNYNEKFKGKATFTADTSSNTVYMQLSSLTSEDSAVYYCTKWGLYDSDDGVDYWGQGTTLTVSS VL: ENVLTQSPAIMSASLGEKVTMSCRASSGVNYMYWYQQKSDASPKLLIYYTSILAPGVPARFSGSGSGNSYSLTISSMEGEDAATYYCQQFTSSPYTFGGGTKLEIKR						no binding (tested: 30 µg/ml)	no binding
